Tests used:
CDK2/cyclin A complex = CDK2/cyclin A complex (UniProt P24941 1-298; P20248 1-432); experiment: cell-based or functional assay
CDC2/cyclin B complex = CDC2/cyclin B complex (UniProt P06493 1-297; P14635 1-433); experiment: cell-based or functional assay
CDK4/cyclin D1 complex [1] = biological target: T1, CDK4/cyclin D1 complex (UniProt P11802 1-303; P24385 1-295); experiment: cell-based or functional assay
CDK2/cyclin E complex = CDK2/cyclin E complex (UniProt P24941 1-298; P24864 16-410); experiment: cell-based or functional assay
CDK4/cyclin D1 complex [2] = biological target: T1, CDK4/cyclin D1 complex; experiment: in vitro kinase inhibition assay (32P incorporation into GST-Rb)
Method: Partial purification of CDK4/cyclin D1 was achieved by a 20–40% ammonium sulfate preparation of the cell lysate and was used in the assays. […] These assays were carried out in 96 well plates (Nunc, Naperville, Ill.) and monitored by γ-^32P-ATP incorporation.
The concentrations of GST-Rb and histone H1 were 4.4 mM and 19 mM, respectively, and the concentration of ATP was 50–60 mM. The reaction mixtures contained 50 mM Tris-Cl pH 7.5, 10 mM MgCl_2, and 1 mM DTT in a total volume of 50 or 100 µl. After incubation at 30° C. for 10–20 minutes, the reaction was terminated by the addition of a stop solution containing EDTA. The phosphorylated substrates were captured either by GST-Sepharose or TCA precipitation and then monitored for radioactivity (Microplate Scintillation Counter, Packard, Meriden, Conn.).

T1 sequence (P11802 whole entry, chain 1 of 2): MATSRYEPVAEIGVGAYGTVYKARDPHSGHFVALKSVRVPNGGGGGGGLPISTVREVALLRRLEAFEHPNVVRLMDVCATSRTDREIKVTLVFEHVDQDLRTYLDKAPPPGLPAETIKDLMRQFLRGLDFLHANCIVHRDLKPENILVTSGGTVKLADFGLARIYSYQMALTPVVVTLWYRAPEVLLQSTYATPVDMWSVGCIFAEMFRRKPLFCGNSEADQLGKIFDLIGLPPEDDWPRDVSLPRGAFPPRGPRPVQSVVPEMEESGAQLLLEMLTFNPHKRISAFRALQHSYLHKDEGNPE
T1 sequence (P24385 whole entry, chain 2 of 2): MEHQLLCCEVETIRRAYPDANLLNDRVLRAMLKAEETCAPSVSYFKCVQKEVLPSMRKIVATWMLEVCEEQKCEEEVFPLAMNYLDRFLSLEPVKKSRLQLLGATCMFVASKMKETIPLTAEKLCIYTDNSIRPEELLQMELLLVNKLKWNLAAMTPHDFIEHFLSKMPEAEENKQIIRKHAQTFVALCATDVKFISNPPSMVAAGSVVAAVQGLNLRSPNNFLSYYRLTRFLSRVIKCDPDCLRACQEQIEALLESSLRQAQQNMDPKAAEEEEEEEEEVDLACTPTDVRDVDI
Chain of CDC2/cyclin B complex (P06493 whole entry, chain 1 of 2): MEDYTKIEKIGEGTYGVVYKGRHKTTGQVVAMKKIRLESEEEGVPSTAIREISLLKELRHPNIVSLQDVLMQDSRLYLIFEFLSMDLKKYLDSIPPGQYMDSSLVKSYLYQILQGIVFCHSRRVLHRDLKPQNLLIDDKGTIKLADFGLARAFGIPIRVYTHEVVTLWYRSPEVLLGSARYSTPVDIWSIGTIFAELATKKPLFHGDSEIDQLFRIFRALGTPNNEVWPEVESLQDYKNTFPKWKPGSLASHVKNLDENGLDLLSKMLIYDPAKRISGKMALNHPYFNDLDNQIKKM
Chain of CDC2/cyclin B complex (P14635 whole entry, chain 2 of 2): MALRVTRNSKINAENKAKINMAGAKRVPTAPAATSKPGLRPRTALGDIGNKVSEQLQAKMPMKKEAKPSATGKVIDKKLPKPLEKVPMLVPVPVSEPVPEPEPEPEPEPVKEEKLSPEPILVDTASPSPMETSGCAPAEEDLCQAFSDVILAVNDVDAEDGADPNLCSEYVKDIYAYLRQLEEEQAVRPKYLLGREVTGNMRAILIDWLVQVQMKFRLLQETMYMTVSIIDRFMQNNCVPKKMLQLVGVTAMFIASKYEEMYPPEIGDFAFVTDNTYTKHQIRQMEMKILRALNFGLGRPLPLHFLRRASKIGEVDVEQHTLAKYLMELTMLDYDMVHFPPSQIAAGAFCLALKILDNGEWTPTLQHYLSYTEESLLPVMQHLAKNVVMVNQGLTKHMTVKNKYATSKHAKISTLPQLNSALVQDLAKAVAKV

IC50, in vitro kinase assay (CDK2/cyclin A complex): > 500 nM
IC50, in vitro kinase assay (CDC2/cyclin B complex): > 500 nM
IC50, in vitro kinase assay (CDK4/cyclin D1 complex [1]): 250 nM
IC50, in vitro kinase assay (CDK2/cyclin E complex): > 500 nM
Ki (CDK4/cyclin D1 complex [2]): 75 nM
B1: human p16 (other)
chain: MEPAAGSSMEPSADWLATAAARGRVEEVRALLEAGALPNAPNSYGRRPIQVMMMGSARVAELLLLHGAEPNCADPATLTRPVHDAAREGFLDTLVVLHRAGARLDVRDAWGRLPVDLAEELGHRDVARYLRAAAGGTRGSNHARIDAAEGPSDIPD
notes: also called p16INK4
